Target: Streptococcus pyogenes Cas9 (SpyCas9) (UniProt Q99ZW2)
Test: SEC co-migration followed by SDS-PAGE, band intensity quantified
Details: parent: est. 99; read off a plot

Row | Substance | response [%]
1 | AcrIIA28 from Streptococcus phage Javan 128 H30W | 81
2 | AcrIIA28 from Streptococcus phage Javan 128 K7D | 41
3 | AcrIIA28 from Streptococcus phage Javan 128 K38W | 83
4 | AcrIIA28 from Streptococcus phage Javan 128 K48D | 93
5 | AcrIIA28 from Streptococcus phage Javan 128 R41W | 96
6 | AcrIIA28 from Streptococcus phage Javan 128 S34W | 97
7 | AcrIIA28 from Streptococcus phage Javan 128 S81W | 21
8 | AcrIIA28 from Streptococcus phage Javan 128 W45I | 3

Source: paper PMC11194106
